# Read-outs that look alike come from different tables or passages of the source.
# T1: human CTLA4 on hCTLA4-293T cells (human, UniProt P16410 36-223)
# T1 construct: whole, on cells
# T1 sequence (looked up): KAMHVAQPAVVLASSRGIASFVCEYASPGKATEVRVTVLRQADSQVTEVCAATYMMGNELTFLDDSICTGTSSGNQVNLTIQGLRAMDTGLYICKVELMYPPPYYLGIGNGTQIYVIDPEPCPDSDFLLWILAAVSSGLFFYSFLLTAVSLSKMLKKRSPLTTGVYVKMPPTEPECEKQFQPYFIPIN
# T2: human CTLA4 (construct not stated) (human, UniProt P16410 36-161, limits assumed)
# T2 sequence (looked up): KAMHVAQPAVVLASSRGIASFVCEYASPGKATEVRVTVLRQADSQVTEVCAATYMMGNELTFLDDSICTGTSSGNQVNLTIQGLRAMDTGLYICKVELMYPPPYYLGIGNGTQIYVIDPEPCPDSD
# What was measured:
# mouse CTLA4 = mouse CTLA4 (mouse, UniProt P09793 36-161, limits assumed); experiment: protein based ELISA and other assays, not named
# [1] = target: T1, human CTLA4 on hCTLA4-293T cells; experiment: FACS on hCTLA4-293T cells, purified murine antibody
# Method: (§1) The cells were incubated with the indicated antibody (20 μg/ml with the dilution of 1/5) at 4° C. for 1 hour. Cells were washed three times with FACS buffer. A secondary antibody (PE Goat anti-mouse: 1:200; PE mouse anti-human: 1:10) was added to the cells at 100 μl/well, and incubated at 4° C. for 40 min. Cells were washed three times with FACS buffer and analyzed by FACS Array.
# (§2) The purified hybridoma antibodies were characterized further based on ELISA and FACS analyses. The methods applied were similar to those described above in Example 2 except that in these cases, purified antibodies were used to measure EC50 and IC50.
# human CTLA4-hFc [2] = target: T3, human CTLA4-hFc (human); experiment: ELISA, purified murine antibody on coated human CTLA4-hFc
# T3 construct: Extracellular domain of human CTLA4 fused with a human Fc tag; also called hCTLA4-hFc
# Method: ELISA binding analysis was conducted using human CTLA4-hFc. 96-well plates (Costar, Cat No: 9018) were coated with 100 μl of 2 μg/ml CTLA4-hFc (CrownBio) in coating buffer (PBS, Hyclone, Cat No: SH30256.01B) overnight at 4° C. The wells were aspirated and non-specific binding sites were blocked by adding 200 μl of blocking buffer with 1% (w/v) of bovine serum albumin (BSA, Roche, Cat No: 738328) and incubating for 1 hour at 37° C. After the plates are washed three times with wash buffer (PBS with 0.05% (v/v) TWEEN-20™ (Sigma, Cat No: P1379)), 100 μl/well of a suitable dilutions of hybridoma supernatant in blocking buffer were added and incubated at room temperature for 1 hour. The plates were washed and incubated with 100 μl/well of Goat anti-Mouse IgG (H+L) (Thermo, Cat No: 31432) in blocking buffer for 60 min. After the plates were washed, 100 μl/well of substrate solution TMB (eBioscience, Cat No: 00-4201-56) was added and the plates were incubated for 2 min at room temperature. 100 μl/well of stop solution (2N H₂SO₄) was added to stop the reaction. The colorimetric signals were developed and read at 450 nm using a Auto Plate SpectraMax Plus (Supplier: Molecular Devices; Model: MNR0643; Software: SoftMax Pro v5.4). Through this method, hybridoma cell lines that produce antibodies highly specifically binding to the human CTLA4 protein were repeatedly selected. […]
# [3] = target: T1, human CTLA4 on hCTLA4-293T cells; experiment: FACS blockage of biotinylated human CD80 binding to hCTLA4-293T cells
# Method: (§3) Various concentrations of the testing hybridoma antibodies were added to the cell suspension and incubated at 4° C. for 60 minutes in 96 well plates. Biotin-labeled CD80 protein was added into the wells and incubated at 4° C. for 60 minutes. […] Flow cytometric analyses were performed using a FACS Array.
# as §2
# human CTLA4-mFc [4] = target: T4, human CTLA4-mFc (human); experiment: ELISA blockage of biotinylated CD80-mFc binding to coated human CTLA4-mFc
# T4 construct: Extracellular domain of human CTLA4 fused with mouse Fc; also called hCTLA4-mFc
# Method: (§4) ELISA based ligand blockage analysis was conducted via blocking biotinylated human CD80-mFc from binding to human CTLA4-mFc. CTLA4-mFc antigen (CrownBio) was suspended in PBS (Hyclone, Cat No: SH30256.01B) buffer (2 μg/ml, 100 μl/well) and coated on the 96 well plate (Costar, Cat No: 9018) 4° C. overnight. Plates were washed 3 times using washing buffer: PBS+0.05% Tween 20 (Sigma, Cat No: P1379). 200 μl of blocking buffer (PBS+1% BSA (Roche, Cat No: 738328)) was added to each well, incubated at 37° C. for 1 hour, and washed 3 times. Various concentrations (suitable dilutions of hybridoma supernatant in PBS) of the anti-CTLA4 antibodies were added to the wells (100 μl/well) and incubated at 37° C. for 1 hour. Ligand was added (0.1 μg/ml CD80-mFc-biotin, 100 μl/well), incubated at 37° C. for 2 hours, and washed 3 times. Secondary antibody (Avidin HRP, eBioscience Cat No: E07418-1632, 1:500, 100 μl/well) was added, incubated at 37° C. for 0.5 hour, and washed 3 times. TMB (Sigma, Cat No: T0440, 100 μl/well) was added, and incubated for 3 min at room temperature. To stop the reaction, 2N H₂SO₄ (100 μl/well), was added. The colorimetric signals were developed and read at 450 nm using an Auto Plate SpectraMax Plus (Supplier: Molecular Devices; Model: MNR0643; Software: SoftMax Pro v5.4).
# The purified hybridoma antibodies were characterized further based on ELISA and FACS analyses. […]
# [5] = target: T2, human CTLA4 (construct not stated); experiment: SPR (Biacore 3000), antibody captured by anti-mouse Fc mAb, CTLA4 as analyte
# Method: (§5) To further characterize the binding characteristics of the antibodies, the hybridoma antibodies were profiled using Biacore (Biacore 3000, GE) to elucidate binding kinetics and calculate equilibrium binding constants. This assay was performed by capture method, using the mouse antibody capture kit (BR-1008-38, GE). After diluting anti-mouse Fc mab to 25 μg/ml in pH 5.0 immobilization buffer, immobilization was conducted with the parameters shown in Table 9 at a flow rate of 5 μl/min. The kinetic runs were done by 1) injecting ligand for typical 0.5-1 min at flow rate of 10 μl/min.; 2) injecting analytes of choice for typical 3 min followed by dissociation in running buffer (1×PBS-P20) for typical 5-10 min at flow rate of 30 μl/min.; and 3) injecting regeneration solution 10 mM Glycine pH 1.7 for typical 1-2 min at flow rate of 10 μl/min.
# [6] = target: T1, human CTLA4 on hCTLA4-293T cells; experiment: FACS on hCTLA4-293T cells, humanized antibody
# Method: as §1
# (§6) After generation and purification of humanized 6F3-hIgG1 and 10B10-hIgG1 antibodies, the binding and specificity of the antibodies were determined using ELISA-based binding and CTLA4/CD80 blockage analyses, as well as FACS-based binding and CTLA4/CD80 blockage analyses. The methods used were similar to those described above in EXAMPLE 4.
# human CTLA4-hFc [7] = target: T3, human CTLA4-hFc; experiment: ELISA, humanized antibody on coated human CTLA4
# [8] = target: T2, human CTLA4 (construct not stated); experiment: SPR (Biacore 3000), capture method as in Example 5, CTLA4 as analyte
# Method: as §5
# The binding kinetics between CTLA4 and humanized CTLA4 antibodies were measured by Biacore3000 as described in Example 5. The dissociation constant, KD, was calculated from the determined rate constants by the relation KD=kd/ka.
# [9] = target: T1, human CTLA4 on hCTLA4-293T cells; experiment: FACS blockage of biotinylated human CD80 binding to hCTLA4-293T cells; remark: listed apart in the source
# Method: as §3, §6
# human CTLA4-mFc [10] = target: T4, human CTLA4-mFc; experiment: ELISA blockage of biotinylated CD80-mFc binding to coated human CTLA4-mFc; remark: listed apart in the source
# Method: as §4, with “Secondary antibody (Avidin HRP, eBioscience Cat No: E07418-1632, 1:500, 100 μl/well) was added, incubated at 37° C. for 0.5 hour, and washed 3 times. TMB (Sigma, Cat No: T0440, 100 μl/well) was added, and incubated for 3 min at room temperature. To stop the reaction, 2N H₂SO₄ (100 μl/well), was added.” left out
# After generation and purification of humanized 6F3-hIgG1 and 10B10-hIgG1 antibodies, the binding and specificity of the antibodies were determined using ELISA-based binding and CTLA4/CD80 blockage analyses, as well as FACS-based binding and CTLA4/CD80 blockage analyses. […]
binding result (mouse CTLA4),EC50 [1] [µg/mL],EC50 (human CTLA4-hFc [2]) [µg/mL],IC50 [3] [µg/mL],IC50 (human CTLA4-mFc [4]) [µg/mL],Kd [5] [nM],koff [5] [s⁻¹],kon [5] [M⁻¹ s⁻¹],EC50 [6] [µg/mL],EC50 (human CTLA4-hFc [7]) [µg/mL],Kd [8] [nM],koff [8] [s⁻¹],kon [8] [M⁻¹ s⁻¹],IC50 [9] [µg/mL],IC50 (human CTLA4-mFc [10]) [µg/mL],Binder
no binding,0.305,0.0127,0.511,0.594,0.219,0.000152,693000,–,–,–,–,–,–,–,"10B10 murine (antibody, V domains shown, Mouse monoclonal antibody purified from hybridoma supernatant on Protein G; also called murine antibody 10B10; anti-CTLA4 hybridoma antibody 10B10) VH: DVQLQESGPGLVTPSQSLSLTCSVTGYSITSGYSWNWIRQFPGNKLEWMGYIRFDGNNNYNPFLKNRISITRDTSENQFFLKLNSVTTEDTATYYCARNYGTWGAMDFWGQGTSVTVSS VL: DIVLTQSPSSLSASLGGKVTITCKTSQDINKYMAWYQHKPGKGPRLLIYYTSILQPGIPSRFSGSGSGTDYSFSINNLEPEDIATYYCQQYDNLNTFGGGTMLEIK"
–,–,–,–,–,–,–,–,2.33,0.00201,0.441,0.00013,295000,0.435,0.295,"6F3 humanized (antibody, human IgG1, kappa, V domains shown, Humanized IgG1, expressed in Freestyle 293 cells; also called h6F3-IgG1; humanized 6F3-hIgG1) VH: QVQLVQSGAEVKKPGSSVKVSCKASGYTFTDYEMHWVRQAPGQGLEWIGVIDPETGGITYNQKFKGRATLTADKSTSTAYMELSSLRSEDTAVYYCTRRGARATVYNYVMDYWGQGTLVTVSS VL: DIQMTQSPSSLSASVGDRVTITCRASENIHNYLAWYQQKPGKAPKLLVYNAKTLGDGVPSRFSGSGSGTDYTLTISSLQPEDFATYYCQHFWSTPWTFGGGTKVEIKR"
–,–,–,–,–,–,–,–,5.28,0.00293,0.273,0.000113,414000,0.0253,0.285,"10B10 humanized (antibody, human IgG1, kappa, V domains shown, Humanized IgG1, expressed in Freestyle 293 cells; also called h10B10-IgG1; humanized 10B10-hIgG1) VH: QVQLQESGPGLVKPSQTLSLTCAVSGYSITSGYSWNWIRQPPGKGLEWMGYIRFDGNNNYNPFLKNRITISRDTSKNQFSLKLSSVTAADTAVYYCARNYGTWGAMDFWGQGTLVTVSS VL: DIQLTQSPSSLSASVGDRVTITCKTSQDINKYMAWYQQKPGKAPKLLIYYTSILQPGVPSRFSGSGSGTDYTFTISSLQPEDIATYYCQQYDNLNTFGGGTKVEIKR"
no binding,1.18,0.025,0.526,0.526,0.409,0.000244,598000,–,–,–,–,–,–,–,"6F3 murine (antibody, V domains shown, Mouse monoclonal antibody purified from hybridoma supernatant on Protein G; also called murine antibody 6F3; anti-CTLA4 hybridoma antibody 6F3) VH: QVKLQESGAELVRPGASVTLSCKASGYTFTDYEMHWMKQTPVHGLEWIGVIDPETGGITYNQKFKGKATLTADKSSSTAYMEFLSLTSEDSAVYYCTRRGARATVYNYVMDYWGQGTSVTVSS VL: DIVMTQTTASLSASVGETVTITCRASENIHNYLAWYQQKQGRSPQLLVYNAKTLGDGVPSRFSGSGSGTQYSLKINSLQPEDFGSYYCQHFWSTPWTFGGGTKLEIK"

# Source: patent US20190225690A1 (CROWN BIOSCIENCE TAICANG, published 2019)
